Source: PMC10786891, “Massively parallel profiling of RNA-targeting CRISPR-Cas13d”

T1: EsCas13d, nuclease-dead (Eubacterium siraeum, UniProt B0MS50, R295A;H300A;R849A;H854A)
T1 sequence: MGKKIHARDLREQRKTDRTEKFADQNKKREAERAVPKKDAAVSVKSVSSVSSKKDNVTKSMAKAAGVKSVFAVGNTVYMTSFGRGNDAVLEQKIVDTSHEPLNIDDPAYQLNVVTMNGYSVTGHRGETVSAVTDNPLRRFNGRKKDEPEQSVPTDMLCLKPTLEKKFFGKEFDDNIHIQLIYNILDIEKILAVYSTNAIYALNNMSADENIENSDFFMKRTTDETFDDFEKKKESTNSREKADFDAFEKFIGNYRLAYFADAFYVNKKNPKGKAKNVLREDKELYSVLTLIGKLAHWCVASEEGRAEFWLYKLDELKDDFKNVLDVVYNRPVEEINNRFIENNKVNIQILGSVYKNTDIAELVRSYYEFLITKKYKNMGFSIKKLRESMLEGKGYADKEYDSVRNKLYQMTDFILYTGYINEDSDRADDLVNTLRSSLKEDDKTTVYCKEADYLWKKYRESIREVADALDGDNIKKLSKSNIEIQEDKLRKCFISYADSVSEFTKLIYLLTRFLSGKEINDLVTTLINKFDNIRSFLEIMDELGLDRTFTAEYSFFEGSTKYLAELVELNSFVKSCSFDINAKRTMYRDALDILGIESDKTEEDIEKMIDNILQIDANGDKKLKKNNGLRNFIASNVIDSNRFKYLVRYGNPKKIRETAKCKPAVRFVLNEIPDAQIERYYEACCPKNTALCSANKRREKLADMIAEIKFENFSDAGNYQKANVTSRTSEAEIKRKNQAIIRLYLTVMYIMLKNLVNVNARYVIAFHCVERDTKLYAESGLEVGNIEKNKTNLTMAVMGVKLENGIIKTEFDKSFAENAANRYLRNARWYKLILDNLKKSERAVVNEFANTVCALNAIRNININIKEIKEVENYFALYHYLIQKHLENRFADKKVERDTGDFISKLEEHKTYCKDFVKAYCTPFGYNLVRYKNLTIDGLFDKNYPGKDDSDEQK

B1: target 1 insC 3' of 18,insA 3' of 10 (mixed)
RNA 1: CACCCGUGCAAAAAUGCAGGGGUCUAAAACUGAGCGGAUAACCUCUCUAUGG
RNA 2: GGGAAUGGAUCCACAUCUACGAAUUCGUACCAUACGAGAGGUUAAUCCGCUCACCGAGAUCGGAAGAGCACACGU
B2: target 1 U3G,C7U (mixed)
RNA 1: CACCCGUGCAAAAAUGCAGGGGUCUAAAACUGAGCGGAUAACCUCUCUAUGG
RNA 2: GGGAAUGGAUCCACAUCUACGAAUUCGUACCAUAGAGAGGUUAUUCGCGCACCGAGAUCGGAAGAGCACACGU
B3: target 1 C6G,C21U (mixed)
RNA 1: CACCCGUGCAAAAAUGCAGGGGUCUAAAACUGAGCGGAUAACCUCUCUAUGG
RNA 2: GGGAAUGGAUCCACAUCUACGAAUUCGUACUAUAGAGAGGUUAUCGGCUCACCGAGAUCGGAAGAGCACACGU
B4: target 2 MT 5'PFS AGC 3'PFS AGG (mixed)
RNA 1: CACCCGUGCAAAAUUGCAGGGGUCUAAAACCUUCUCCAAAUUGUUUCAUCCU
RNA 2: GGGAAUGGAUCCACAUCUACGAAUUCAGCAGGAUGAAACAAUUUGGAGAAGAGGAGAUCGGAAGAGCACACGU
B5: target 2 MT 5'PFS ACC 3'PFS CUA (mixed)
RNA 1: CACCCGUGCAAAAUUGCAGGGGUCUAAAACCUUCUCCAAAUUGUUUCAUCCU
RNA 2: GGGAAUGGAUCCACAUCUACGAAUUCACCAGGAUGAAACAAUUUGGAGAAGCUAAGAUCGGAAGAGCACACGU
B6: target 2 MT 5'PFS GCU 3'PFS CUU (mixed)
RNA 1: CACCCGUGCAAAAUUGCAGGGGUCUAAAACCUUCUCCAAAUUGUUUCAUCCU
RNA 2: GGGAAUGGAUCCACAUCUACGAAUUCGCUAGGAUGAAACAAUUUGGAGAAGCUUAGAUCGGAAGAGCACACGU
B7: target 2 MT 5'PFS AGA 3'PFS ACU (mixed)
RNA 1: CACCCGUGCAAAAUUGCAGGGGUCUAAAACCUUCUCCAAAUUGUUUCAUCCU
RNA 2: GGGAAUGGAUCCACAUCUACGAAUUCAGAAGGAUGAAACAAUUUGGAGAAGACUAGAUCGGAAGAGCACACGU
B8: target 2 MT 5'PFS AUA 3'PFS CUC (mixed)
RNA 1: CACCCGUGCAAAAUUGCAGGGGUCUAAAACCUUCUCCAAAUUGUUUCAUCCU
RNA 2: GGGAAUGGAUCCACAUCUACGAAUUCAUAAGGAUGAAACAAUUUGGAGAAGCUCAGAUCGGAAGAGCACACGU
B9: target 2 MT 5'PFS AGC 3'PFS AGA (mixed)
RNA 1: CACCCGUGCAAAAUUGCAGGGGUCUAAAACCUUCUCCAAAUUGUUUCAUCCU
RNA 2: GGGAAUGGAUCCACAUCUACGAAUUCAGCAGGAUGAAACAAUUUGGAGAAGAGAAGAUCGGAAGAGCACACGU
B10: target 2 MT 5'PFS AUA 3'PFS CUG (mixed)
RNA 1: CACCCGUGCAAAAUUGCAGGGGUCUAAAACCUUCUCCAAAUUGUUUCAUCCU
RNA 2: GGGAAUGGAUCCACAUCUACGAAUUCAUAAGGAUGAAACAAUUUGGAGAAGCUGAGAUCGGAAGAGCACACGU
B11: target 2 MT 5'PFS AGA 3'PFS ACG (mixed)
RNA 1: CACCCGUGCAAAAUUGCAGGGGUCUAAAACCUUCUCCAAAUUGUUUCAUCCU
RNA 2: GGGAAUGGAUCCACAUCUACGAAUUCAGAAGGAUGAAACAAUUUGGAGAAGACGAGAUCGGAAGAGCACACGU
B12: target 2 MT 5'PFS GUU 3'PFS AGG (mixed)
RNA 1: CACCCGUGCAAAAUUGCAGGGGUCUAAAACCUUCUCCAAAUUGUUUCAUCCU
RNA 2: GGGAAUGGAUCCACAUCUACGAAUUCGUUAGGAUGAAACAAUUUGGAGAAGAGGAGAUCGGAAGAGCACACGU
B13: target 2 MT 5'PFS AGC 3'PFS CAU (mixed)
RNA 1: CACCCGUGCAAAAUUGCAGGGGUCUAAAACCUUCUCCAAAUUGUUUCAUCCU
RNA 2: GGGAAUGGAUCCACAUCUACGAAUUCAGCAGGAUGAAACAAUUUGGAGAAGCAUAGAUCGGAAGAGCACACGU
B14: target 2 MT 5'PFS GUU 3'PFS AGA (mixed)
RNA 1: CACCCGUGCAAAAUUGCAGGGGUCUAAAACCUUCUCCAAAUUGUUUCAUCCU
RNA 2: GGGAAUGGAUCCACAUCUACGAAUUCGUUAGGAUGAAACAAUUUGGAGAAGAGAAGAUCGGAAGAGCACACGU
B15: target 2 MT 5'PFS AGC 3'PFS CAA (mixed)
RNA 1: CACCCGUGCAAAAUUGCAGGGGUCUAAAACCUUCUCCAAAUUGUUUCAUCCU
RNA 2: GGGAAUGGAUCCACAUCUACGAAUUCAGCAGGAUGAAACAAUUUGGAGAAGCAAAGAUCGGAAGAGCACACGU
B16: target 2 MT 5'PFS AGC 3'PFS CAC (mixed)
RNA 1: CACCCGUGCAAAAUUGCAGGGGUCUAAAACCUUCUCCAAAUUGUUUCAUCCU
RNA 2: GGGAAUGGAUCCACAUCUACGAAUUCAGCAGGAUGAAACAAUUUGGAGAAGCACAGAUCGGAAGAGCACACGU
B17: target 2 MT 5'PFS AGC 3'PFS AGC (mixed)
RNA 1: CACCCGUGCAAAAUUGCAGGGGUCUAAAACCUUCUCCAAAUUGUUUCAUCCU
RNA 2: GGGAAUGGAUCCACAUCUACGAAUUCAGCAGGAUGAAACAAUUUGGAGAAGAGCAGAUCGGAAGAGCACACGU
B18: target 2 MT 5'PFS AGA 3'PFS ACC (mixed)
RNA 1: CACCCGUGCAAAAUUGCAGGGGUCUAAAACCUUCUCCAAAUUGUUUCAUCCU
RNA 2: GGGAAUGGAUCCACAUCUACGAAUUCAGAAGGAUGAAACAAUUUGGAGAAGACCAGAUCGGAAGAGCACACGU
B19: target 2 MT 5'PFS AAU 3'PFS CGC (mixed)
RNA 1: CACCCGUGCAAAAUUGCAGGGGUCUAAAACCUUCUCCAAAUUGUUUCAUCCU
RNA 2: GGGAAUGGAUCCACAUCUACGAAUUCAAUAGGAUGAAACAAUUUGGAGAAGCGCAGAUCGGAAGAGCACACGU
B20: target 2 MT 5'PFS UUA 3'PFS CCG (mixed)
RNA 1: CACCCGUGCAAAAUUGCAGGGGUCUAAAACCUUCUCCAAAUUGUUUCAUCCU
RNA 2: GGGAAUGGAUCCACAUCUACGAAUUCUUAAGGAUGAAACAAUUUGGAGAAGCCGAGAUCGGAAGAGCACACGU
B21: target 2 MT 5'PFS AUA 3'PFS CUU (mixed)
RNA 1: CACCCGUGCAAAAUUGCAGGGGUCUAAAACCUUCUCCAAAUUGUUUCAUCCU
RNA 2: GGGAAUGGAUCCACAUCUACGAAUUCAUAAGGAUGAAACAAUUUGGAGAAGCUUAGAUCGGAAGAGCACACGU
B22: target 2 MT 5'PFS AGA 3'PFS ACA (mixed)
RNA 1: CACCCGUGCAAAAUUGCAGGGGUCUAAAACCUUCUCCAAAUUGUUUCAUCCU
RNA 2: GGGAAUGGAUCCACAUCUACGAAUUCAGAAGGAUGAAACAAUUUGGAGAAGACAAGAUCGGAAGAGCACACGU
B23: target 2 MT 5'PFS GUU 3'PFS AGC (mixed)
RNA 1: CACCCGUGCAAAAUUGCAGGGGUCUAAAACCUUCUCCAAAUUGUUUCAUCCU
RNA 2: GGGAAUGGAUCCACAUCUACGAAUUCGUUAGGAUGAAACAAUUUGGAGAAGAGCAGAUCGGAAGAGCACACGU
B24: target 2 MT 5'PFS AAU 3'PFS CGG (mixed)
RNA 1: CACCCGUGCAAAAUUGCAGGGGUCUAAAACCUUCUCCAAAUUGUUUCAUCCU
RNA 2: GGGAAUGGAUCCACAUCUACGAAUUCAAUAGGAUGAAACAAUUUGGAGAAGCGGAGAUCGGAAGAGCACACGU
B25: target 2 MT 5'PFS AUG 3'PFS CGA (mixed)
RNA 1: CACCCGUGCAAAAUUGCAGGGGUCUAAAACCUUCUCCAAAUUGUUUCAUCCU
RNA 2: GGGAAUGGAUCCACAUCUACGAAUUCAUGAGGAUGAAACAAUUUGGAGAAGCGAAGAUCGGAAGAGCACACGU
B26: target 2 MT 5'PFS AUA 3'PFS CUA (mixed)
RNA 1: CACCCGUGCAAAAUUGCAGGGGUCUAAAACCUUCUCCAAAUUGUUUCAUCCU
RNA 2: GGGAAUGGAUCCACAUCUACGAAUUCAUAAGGAUGAAACAAUUUGGAGAAGCUAAGAUCGGAAGAGCACACGU
B27: target 2 MT 5'PFS AGC 3'PFS CAG (mixed)
RNA 1: CACCCGUGCAAAAUUGCAGGGGUCUAAAACCUUCUCCAAAUUGUUUCAUCCU
RNA 2: GGGAAUGGAUCCACAUCUACGAAUUCAGCAGGAUGAAACAAUUUGGAGAAGCAGAGAUCGGAAGAGCACACGU
B28: target 2 MT 5'PFS GAU 3'PFS UUA (mixed)
RNA 1: CACCCGUGCAAAAUUGCAGGGGUCUAAAACCUUCUCCAAAUUGUUUCAUCCU
RNA 2: GGGAAUGGAUCCACAUCUACGAAUUCGAUAGGAUGAAACAAUUUGGAGAAGUUAAGAUCGGAAGAGCACACGU

These binders were tested against T1, EsCas13d, nuclease-dead (assay: crRNA (strand 1, pre-loaded); Mg2+; 40 mM Tris-HCl pH 7.5, 150 mM NaCl, 6 mM MgCl2, 1 mM DTT, 0.1% Tween-20, 0.2 mg/ml BSA; 25 C; 10 min per concentration, then washed). Conditions: tags: His6-TwinStrep-SUMO cleaved; N-terminal SNAP kept (SNAP-Surface 488); label: 3' end held by stalled T7 RNA polymerase.

Compared with B1, B2 is 9.6-fold lower in Kd: 52 ± 4 nM for the first, 5.39 ± 0.15 nM for the second.

B3 and B4 are within 1.5-fold of each other in Kd: 5.38 ± 0.17 nM for the first, 7.1 ± 1 nM for the second.

First: B5
Second: B6
The Kd of the first is 1.8-fold lower: 9.7 ± 2.5 nM for the first, 17.5 ± 3 nM for the second. The first binds more tightly here.

B7 and B8 are within error of each other in Kd: 11.6 ± 1.9 nM for the first, 13 ± 4 nM for the second.

B9 and B10 are within error of each other in Kd: 7.1 ± 1 nM for the first, 8.8 ± 1.6 nM for the second.

B11 and B12 are within error of each other in Kd: 10.3 ± 1.8 nM for the first, 12.5 ± 0.9 nM for the second.

B13 and B14 are within 1.5-fold of each other in Kd: 7.3 ± 1.3 nM for the first, 10 ± 1.1 nM for the second.

B15 and B16 are within error of each other in Kd: 7 ± 1.8 nM for the first, 11.4 ± 2.6 nM for the second.

Compared with B17, B18 is 3-fold higher in Kd: 7.1 ± 1.6 nM for the first, 21 ± 9 nM for the second.

Going from B19 to B20, the Kd rises from 7.3 ± 1.3 nM to 39 ± 4 nM (5.3-fold). The first binds more tightly here.

First: B21
Second: B22
The Kd of the first is 4.3-fold higher: 20 ± 6 nM for the first, 4.6 ± 1.1 nM for the second. The second binds more tightly here.

Going from B23 to B24, the Kd falls from 11.6 ± 1.2 nM to 4.6 ± 0.6 nM (2.5-fold).

First: B25
Second: B26
The Kd of the first is 1.5-fold higher: 9.4 ± 1 nM for the first, 6.1 ± 1.4 nM for the second. The second binds more tightly here.

First: B27
Second: B28
The Kd of the first is 3.4-fold lower: 6.7 ± 1.1 nM for the first, 23 ± 7 nM for the second.
